Results taken from patent US20030017619A1.

Molecular target: IgG class antibody in the serum of a patient with IgA nephropathy which showed positive in example 1
Test: inhibition ELISA: serum pre-incubated with 1 µg/ml peptide solution (1:1), then added to immobilized hinge peptide-BSA; anti-human IgG, absorbancy at 490 nm

| difference in the absorption between the added group and the blank solution | Binder |
| --- | --- |
| > 10% | PSTPP [synthetic peptide Pro Ser Thr Pro Pro] |
| > 10% | TPPTP [synthetic peptide Thr Pro Pro Thr Pro] |
| > 10% | PTPSP [synthetic peptide Pro Thr Pro Ser Pro] |
| > 10% | PSPST [synthetic peptide Pro Ser Pro Ser Thr] |
| > 10% | PSPSC [synthetic peptide Pro Ser Pro Ser Cys] |
| > 10% | PVPST [synthetic peptide Pro Val Pro Ser Thr] |
